Reference: CN115536746A (NANJING SANHOME PHARMACEUTICAL CO LTD, dated 2022)

B1: HuC94-31 (antibody, V domains shown)
VH: EVQLLESGGGLVQPGGSLRLSCAASGFTFSTSAMSWVRQAPGKGLEWVATISSGGDYTYYSDNVKGRFTISRDNSKSTLYLQMNSLRAEDTAVYYCTLGYDEADYWGQGSLLTVSS
VL: DIQMTQSPSSLSASVGDRVTITCRASQDISNYLNWYQQKPGKAPKLLIYYTSRLHSGVPSRFSGSGSGTDYTFTISSLQPEDIATYYCQQGDTFPWTFGGGTKLEIK
notes: also called HuC94-31-biotin; 抗CRTAM人源化抗体HuC94-31
B2: HuC124-42 (antibody, V domains shown)
VH: QVQLVQSGAEVKKPGSSVKVSCKASGYSFSNYWIEWVRQAPGQGLEWIGEILPGVPTIYYNAKFKDRVTFTADKSTSTAYMELSSLRSEDTAVYYCSRDPWFAYWGQGTLVTVSA
VL: EIVLTQSPATLSVSPGERATFSCRASQSIGTSLHWFQQKPGQAPRLLIKYASQSISGIPARFSGSGSGTEFTLTISSVQSEDFAVYYCQQSNNWPFTFGGGTKLEIK
notes: also called HuC124-42-biotin; 抗CRTAM人源化抗体HuC124-42
B3: HuC110-34 (antibody, V domains shown)
VH: QVQLVQSGAEVKKPGASVKVSCKASGYTFTNNDINWVKQAPGQRLEWIGWIYPRDGSTQYNEKFRGRATITVDTSASTAYMELSSLRSEDTAVYFCARGLVDYWGQGTLVTVSS
VL: DVVMTQSPDSLAVSLGERATINCRSSQSLVHSNKNTYLHWYLQKPGQPPKLLIYKVSNRFSGVPDRFSGSGSGTDFTLTISSLQAEDVAVYYCSQSTRVPWTFGGGTKLEIK
notes: also called HuC110-34-biotin; 抗CRTAM人源化抗体HuC110-34

Target: T1, cCRTAM-His (猴源CRTAM蛋白胞外区 + His标签) (猴源 (食蟹猴, cynomolgus monkey))
T1 construct: also called cCRTAM-His蛋白; 食蟹猴CRTAM
T1 chain: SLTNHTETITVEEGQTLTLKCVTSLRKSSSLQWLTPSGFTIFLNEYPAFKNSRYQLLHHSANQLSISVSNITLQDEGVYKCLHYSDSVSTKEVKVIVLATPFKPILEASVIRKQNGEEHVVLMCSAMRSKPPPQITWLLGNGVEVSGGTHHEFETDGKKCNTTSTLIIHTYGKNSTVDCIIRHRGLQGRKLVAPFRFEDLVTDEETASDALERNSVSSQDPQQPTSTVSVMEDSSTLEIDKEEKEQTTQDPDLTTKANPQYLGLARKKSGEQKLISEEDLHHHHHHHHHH
Test: ELISA, cCRTAM-His coated at 2 μg/mL

Binder	EC50 [ng/mL]
B1	4.68
B2	4.78
B3	8.17
